Source: patent publication US20130261013A1 (MODPRO, published 2013)
Square brackets hold non-standard residues; d marks the D form. Side chains are listed from the residue outwards. Ends that are not written are not given here. * marks the point of attachment. X2 = 7‑methoxycoumarin‑3‑carboxylic acid, COc1ccc2cc(C(=O)*)c(=O)oc2c1; Dansyl = CN(C)c1cccc2c(S(=O)(=O)*)cccc12; Ahx = NCCCCCC(=O)O

What was measured:
[1] = molecular target: T1, human Carbonic Anhydrase II (human, UniProt P00918 2-260); assay: fluorescence titration, 50 nM fluorescein labelled binder, HCAII 20 pM to 1 µM
Procedure: The fluorescence titrations were carried out using polypeptides conjugated to a dansyl group rather than a 7-methoxycoumarin to avoid overlap with fluorescein, but a fluorophore is present in each sequence of the scaffold library to simplify identification and quantification throughout synthesis and purification. […] Fluorescence intensities of protein-binder mixtures were compared to intensities of binders without protein. The analysis was performed in 50 mM Hepes buffer at pH 7.4 containing 150 mM NaCl. HCAII was added in 25 steps over a concentration range from 20 pM to 1 μM to the binder at 50 nM concentration and the results analyzed by curve fitting.

human D-dimer protein [2] = molecular target: T2, human D-dimer protein (human, UniProt P02671 124-216; P02675 164-491; P02679 89-437); assay: SPR surface competition, D-dimer immobilized; competitor 4-D10L17-GPRP at 100 nM; GPRP in running buffer, competing with 100 nM 4-D10L17-GPRP (Biacore)
T2 construct: Bought from Abcam Inc. UK; the chain make-up here is from general knowledge
T2 sequence (looked up) 1: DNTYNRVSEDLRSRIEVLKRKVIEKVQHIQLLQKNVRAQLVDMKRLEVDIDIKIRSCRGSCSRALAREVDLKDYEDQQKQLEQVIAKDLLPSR
T2 sequence (looked up) 2: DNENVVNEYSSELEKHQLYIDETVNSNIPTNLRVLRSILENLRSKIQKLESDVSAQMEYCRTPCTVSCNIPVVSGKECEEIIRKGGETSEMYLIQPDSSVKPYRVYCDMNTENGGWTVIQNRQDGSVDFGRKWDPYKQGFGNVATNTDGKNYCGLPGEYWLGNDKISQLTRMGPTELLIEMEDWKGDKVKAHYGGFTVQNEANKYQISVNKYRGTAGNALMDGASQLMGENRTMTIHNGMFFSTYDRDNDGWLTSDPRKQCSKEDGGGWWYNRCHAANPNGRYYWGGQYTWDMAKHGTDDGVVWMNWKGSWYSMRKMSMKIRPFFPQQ
T2 sequence (looked up) 3: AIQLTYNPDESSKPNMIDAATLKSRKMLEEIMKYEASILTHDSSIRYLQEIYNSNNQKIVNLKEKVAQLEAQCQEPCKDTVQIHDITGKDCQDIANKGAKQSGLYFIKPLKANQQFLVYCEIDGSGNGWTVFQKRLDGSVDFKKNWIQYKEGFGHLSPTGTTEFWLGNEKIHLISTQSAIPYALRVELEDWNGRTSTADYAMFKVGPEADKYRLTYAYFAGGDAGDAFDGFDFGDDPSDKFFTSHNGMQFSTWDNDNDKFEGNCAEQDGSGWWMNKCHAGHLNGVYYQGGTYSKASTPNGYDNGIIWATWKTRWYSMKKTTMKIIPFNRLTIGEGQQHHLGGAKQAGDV
Procedure: (§1) The interactions between the D-dimer protein and binders as well as surface competition experiments were studied using a Biacore 2000 instrument (GE Healthcare Bio-Sciences, Uppsala, Sweden), equilibrated at 25° C. The CM5 sensor chip (Research grade, Biacore) and reagents were from GE Healthcare Bio-Sciences, Uppsala, Sweden. For direct interaction studies between immobilized D-dimer protein and polypeptide conjugates, HBS-EP was used as running buffer. […] For minimum sample dispersion, the samples were injected at a flow rate of 50 uL/min. After 10 min of dissociation the surface was regenerated by 30 s pulse injection of 10 mM glycine at pH 3.0. All injections were serial and first passed over the deactivated dextran surface and then over the immobilized surfaces. Blank injections were included for each measurement series and subtracted from the data. Experiments were performed at least twice, unless stated otherwise. […] The dissociation constants, Kd, were obtained using the Biaevaluation program version 3.2 (Biacore) and assuming a simple 1:1 Langmuir binding mechanism.

[3] = molecular target: T1, human Carbonic Anhydrase II; assay: SPR, HCAII immobilized on CM5, 1:1 model
Procedure: (§2) HCAI and HCAII were immobilized in different flowcells on a CM-5 (Biacore) chip using standard EDC/NHS coupling in Acetate buffer at pH 5.5.
(§3) SPR measurements were performed on a Biacore® 2000 instrument, with the proteins immobilized on a Biacore® CM-5 sensor chips (GE Healthcare). All interaction studies were performed in Biacore® HSB-EP buffer with the addition of 1% (v/v) DMSO. HCAII (Sigma, lyophilized powder) was dissolved in Acetate buffer pH 5.5 to a 2 mg/mL solution. HCAII were conjugated to the surface by EDC/NHS coupling reactions in Acetate buffer pH 5.5. Solutions of the polypeptide binders were prepared in HBS-EP buffer from stock solutions of 20 μM in DMSO and allowed to flow over the surface at 20 μL/min, with blank injections after every series. All samples were adjusted to contain 1% (v/v) DMSO. Injections were made for 30 s and dissociation was allowed to proceed for 3000 s. Evaluation was performed using a 1:1 binding model.

[4] = molecular target: T3, human Carbonic Anhydrase I (human, UniProt P00915 2-261); assay: SPR, HCAI immobilized on CM5, 1:1 model; the heads Koff and Kon seem to be swapped
T3 construct: also called HCAI; HCA I
T3 sequence (P00915 2-261 limits assumed): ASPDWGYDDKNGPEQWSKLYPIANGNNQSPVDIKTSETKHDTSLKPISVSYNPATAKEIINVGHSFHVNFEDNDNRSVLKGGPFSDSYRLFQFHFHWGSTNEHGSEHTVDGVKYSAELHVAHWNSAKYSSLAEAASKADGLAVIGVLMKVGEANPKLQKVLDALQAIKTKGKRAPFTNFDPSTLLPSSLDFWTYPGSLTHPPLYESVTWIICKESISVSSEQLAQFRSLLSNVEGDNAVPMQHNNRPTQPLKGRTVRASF
Procedure: as §2, §3

[5] = molecular target: T1, human Carbonic Anhydrase II; assay: SPR, ratio of the dissociation constants for HCAI and HCAII
Source text: as §2

[6] = molecular target: T3, human Carbonic Anhydrase I; assay: SPR, HCAI immobilized on CM5, 1:1 model
Procedure: as §2, §3

[7] = molecular target: T1, human Carbonic Anhydrase II; assay: SPR (Biacore 2000), HCAII immobilized on CM5, 1:1 model
Procedure: The sixteen polypeptide conjugates were also characterized by SPR biosensor analysis (Biacore®, GE Healthcare), using a Biacore® 2000 instrument, Biacore® CM-5 chip and HBS-EP buffer pH 7.4 (Biacore®, GE Healthcare) with addition of 1% DMSO for the interaction studies. Peptide solutions were prepared by dilution in buffer from 20 μM stock solutions in DMSO. HCAII was immobilized on the chip using standard EDC/NHS coupling in Acetate buffer pH 5.5. The binders were allowed to flow over the chip at 7 concentrations in the range from 1 nM to 500 nM and the interactions were evaluated using a 1:1 binding model (BiaEvaluation).
as §3, with “Evaluation was performed using a 1:1 binding model.” left out

human D-dimer protein [8] = molecular target: T2, human D-dimer protein; assay: SPR (Biacore 2000) screen, D-dimer immobilized on a CM5 chip, binder at 1, 10 and 100 nM, 3 min injection, 10 min clearance
Procedure: (§4) The protein was then further diluted with 10 mM NaOAc at pH 4.6 to give a concentration of about 32 μg/mL. The D-dimer protein was covalently immobilized on the sensor chip surface by amine coupling with HBS-EP (10 mM HEPES, pH 7.4, 150 mM NaCl, 3 mM EDTA and 0.005% P20) (GE Healthcare Bio-Sciences, Uppsala, Sweden) as a running buffer. The CM5 sensor chip surface was activated for 7 min by injecting a solution of EDC/NHS (200 mM 1-ethyl-3-(3-dimethylaminopropyl)-carbodiimide hydrochloride/50 mM N-hydroxysuccinimide) (GE Healthcare Bio-Sciences, Uppsala, Sweden). The D-dimer protein was injected for 1.5 min at flow rate of 5 uL/min over the activated surface and followed by 7-min pulse of 1M ethanolamine at pH 8.5 to deactivate remaining active ester.
The interactions between the D-dimer protein and binders as well as surface competition experiments were studied using a Biacore 2000 instrument (GE Healthcare Bio-Sciences, Uppsala, Sweden), equilibrated at 25° C. The CM5 sensor chip (Research grade, Biacore) and reagents were from GE Healthcare Bio-Sciences, Uppsala, Sweden. For direct interaction studies between immobilized D-dimer protein and polypeptide conjugates, HBS-EP was used as running buffer. […] For minimum sample dispersion, the samples were injected at a flow rate of 50 uL/min. […]

human D-dimer protein [9] = molecular target: T2, human D-dimer protein; assay: SPR screen (Biacore 2000), D-dimer immobilized on CM5, 1:1 Langmuir model
Procedure: as §4, §1

human D-dimer protein [10] = molecular target: T2, human D-dimer protein; assay: SPR (Biacore 2000), D-dimer immobilized on CM5, binders at 5-160 nM, 1:1 Langmuir model

Ac-NAADLEAAIK(Dansyl)HLAEALK([Ahx-benzenesulphonamide carboxylic acid])ERGPEDC(N‑(5-fluoresceinyl)maleimide)EQLAEQLARAFEAFARAG (designed binder) [1-C10L17-B with dansyl and fluorescein (form for fluorescence titration)]
Kd [1]: 5 nM

GPRP (also called GPRP tetrapeptide) [GPRP peptide]
IC50 (human D-dimer protein [2]): ~50000 nM

Ac-NAADLEARIRHLRERLAARGPRDAAQLAEQLARK([Ahx-benzenesulphonamide carboxylic acid])FEK(X2)FARAG (designed binder, not fully specified (C-terminus)) [4-C37L34-B]
Kd [3]: 17 nM
kon [4]: 4400 M⁻¹ s⁻¹
factor of discrimination between HCAI and HCAII [5]: ~30 fold
Kd [6]: 470 nM
Kd [7]: 15 nM

B1: 1D15L8_GPRP (designed binder)
polypeptide: Ac-NEADLEAKIRHLAEKLEARGPEDAEQLAEQLARAFEAFARAG
ligand peptide, branch on Lys8: GPRP[Ahx]G
modifications: not fully specified (some residues); also: reporter group on Lys15, bond at chain A 8 to a chain's C-terminus via 6-aminocaproic acid-Gly
binding result (human D-dimer protein [8]): no binding (tested: 100 nM)

Ac-NAADLEAAIRHLAERLAARGPVDAAQLAEQLAAK([Gly-Ahx-Pro-Arg-Pro-Gly])FEKFARAG (designed binder, also: reporter on Lys37, 'D' in the name not explained) [2D37L34_GPRP]
Kd (human D-dimer protein [9]): 13600 nM

Ac-NEADLEAAIRHLAERLEARGPADAAQLAEQLAAK([Gly-Ahx-Pro-Arg-Pro-Gly])FEKFARAG (designed binder, also: reporter on Lys37, 'D' in the name not explained) [1D37L34_GPRP]
Kd (human D-dimer protein [9]): 5070 nM

B2: 3D37L34_GPRP (designed binder)
chain: Ac-NAADLEAAIRHLAERLAARGPVDAAQLAEQLARK([Gly-Ahx-Pro-Arg-Pro-Gly])FEKFARAG
modifications: also: reporter on Lys37
notes: 'D' in the name not explained; a Cys in the loop region may be present
Kd (human D-dimer protein [10]): 15.4 nM
Kd (human D-dimer protein [9]): 1150 nM

Ac-NAADLEAAIKHLAEALK([Gly-Ahx-Pro-Arg-Pro-Gly])ARGPVDAAQLAEQLARAFEAFARAG (designed binder, also: reporter on Lys10, 'D' in the name not explained) [2D10L17_GPRP]
Kd (human D-dimer protein [9]): 10300 nM

Ac-NAADLEAK([Ahx-benzenesulphonamide carboxylic acid])IRHLAEK(Dansyl)LAARGPVDC(N‑(5-fluoresceinyl)maleimide)AQLAEQLARRFEAFARAG (designed binder) [3-C15L8-B with dansyl and fluorescein (form for fluorescence titration)]
Kd [1]: 29 nM

Ac-NAADLEAK([Ahx-benzenesulphonamide carboxylic acid])IRHLAEK(X2)LAARGPVDAAQLAEQLARRFEAFARAG (designed binder) [3-C15L8-B]
Kd [3]: 60 nM
Kd [6]: 390 nM
Kd [7]: 43 nM

B3: 2D15L8_GPRP (designed binder)
chain: Ac-NEADLEAK([Gly-Ahx-Pro-Arg-Pro-Gly])IRHLAEKLAARGPVDAAQLAEQLARAFEAFARAG
modifications: also: reporter on Lys15
notes: 'D' in place of 'C' in the name is not explained; tied to 2-C15L8 by the rest of the name
Kd (human D-dimer protein [9]): 10400 nM

Ac-NEADLEAAIRHLAEALAARGPK([Gly-Ahx-Pro-Arg-Pro-Gly])DAKQLAEQLARAFEAFARAG (designed binder, also: reporter on Lys25, 'D' in the name not explained) [2D25L22_GPRP]
Kd (human D-dimer protein [9]): 16100 nM
